This assay deals with T1, human cANGPTL4 (C-terminal fragment of Angiopoietin-like 4 protein) (human, UniProt Q9BY76 186-406, limits assumed).
T1 construct: domain: C-terminal fragment (cANGPTL4); Purified cANGPTL4 was immobilised by amine coupling on the CM5 chip for SPR and on carboxylated microwell plates for ELISA; also called purified cANGPTL4; human cANGPTL4 antigen
T1 sequence (looked up): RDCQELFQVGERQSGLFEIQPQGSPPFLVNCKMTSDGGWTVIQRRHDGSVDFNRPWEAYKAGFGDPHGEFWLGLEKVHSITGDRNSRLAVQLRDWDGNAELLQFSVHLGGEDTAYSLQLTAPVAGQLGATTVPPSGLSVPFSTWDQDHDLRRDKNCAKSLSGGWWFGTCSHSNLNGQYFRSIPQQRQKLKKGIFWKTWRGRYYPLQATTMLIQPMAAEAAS
The assay is described as follows: SPR (BIACORE 3000), cANGPTL4 amine-coupled to CM5 chip, antibody as analyte. As to the method:
Surface Plasmon Resonance (SPR): Sensor CM5 chips and amine coupling kits were from GE Healthcare. Purified cANGPTL4 was immobilized onto a CM5-carboxylated dextran sensor chip by amine coupling using the Surface Prep Module of BIACORE 3000 as recommended by the manufacturer (BIAcore). Antuzumab (0.16, 0.32, 0.63, 1.25, 2.50, and 5.0 μm) diluted and buffered with 50 mm Tris, pH 8.0, was introduced into the cANGPTL4-conjugated CM5 chip at a flow rate of 5 μI/min for 10 min with running buffer (50 mm Tris, pH 8.0, 100 mm NaCl). After incubation for 45 s, the chamber was washed with the same buffer, and the bound molecules were subsequently eluted using 10 mm glycine, pH 6.0. The CM5 chip was reused after washing with running buffer for 10 min at 20 μI/min. Each sensorgram was corrected by subtracting a sensorgram obtained from a reference flow cell with no immobilized protein. Global fitting of the SPR data was used to determine the association (Kₐₛₛ) and dissociation (Kdiss) with Scrubber 2 software. Values are given as the mean±S.D. of three independent preparations of Antuzumab.
Background: In SPR one partner is held on a chip, and binding of the other changes the refractive index at the surface.

Substitutions are numbered along the chain they refer to.

B1: murine monoclonal antibody mAb11F6C4 (antibody, V domains shown)
VH: QITLKESGPGILKPSQTLSLTCSFSGFSLSTSGMGVGWIRQPSGKGLEWLAHIWWDDDKYYNPSLKSQLTISKDTSRNQVFLKITSVDTADTATYYCARKDYGSSYDYWGQGTTLTVSS
VL: DIVLTQSPASLAVSLGQRATISCKASQSVDYDGDSYLNWFQQKPGQPPKLLIYTASNLESGIPARFSGSGSGTDFTLNIHPVEEEDAATYYCQQSNEDPWTFGGGTTLEIK
notes: Murine monoclonal antibody, the parent of the humanized antibodies; also called Control 11F6C4; original mouse-derived mAb
By Kd is commonly meant a measure of binding affinity in units of concentration. Usually koff stands for the first-order rate constant of dissociation. Read a high koff as a short-lived complex. One may read the kon as the rate constant with which the complex forms. A lower kon goes with slower complex formation. Take B1: the “Fold increase (affinity against control 11F6C4)” value (“Fold increase” below) stood at 1 fold; the affinity, expressed as Kd, was 8.28 nM; the koff came out at 0.000905 s⁻¹; the kon is 109000 M⁻¹ s⁻¹.

B2: Antuzumab 1 (antibody, V domains shown)
VH: QVTLKESGPTLVKPTQTLTLTCTFSGFSLSTSGMGVGWIRQPPGKALEWLAHIWWDDDKYYNPSLKSRLTISKDTSKNQVVLTMTNMDPVDTATYYCARKDYGSSYDYWGQGTTVTVSS
VL: DIVMTQSPLSLPVTPGEPASISCKASQSVDYDGDSYLNWYLQKPGQSPRLLIYTASNLESGVPDRFSGSGSGTDFTLKISRVEAEDVGVYYCFQSNEDPWTFGQGTKLEIK
notes: Humanized monoclonal antibody made in CHO cells; also called ANG49; ANGH3 + ANGK3
Consider B2, for which the “Fold increase” value came to 7.86 fold, the dissociation constant Kd is 1.05 nM, the off-rate constant (koff) came out at 0.000693 s⁻¹ and the kon turned out to be 658000 M⁻¹ s⁻¹.

B3: Antuzumab 2 (antibody, V domains shown)
VH: B2 VH with V2I, S72T, V81D, N86F, V90W, R99H, T114L
VL: DIQMTQSPSSLSASVGDRVTITCKASQSVDYDGDSYLNWYQQKPGKAPNLLIYTASNLESGVPSRFSGSGSGTDFTLTISSLQPEDFATYYCQQSNEDPWTFGEGTKVEIK
notes: Humanized monoclonal antibody made in CHO cells; also called ANG50; ANGH4 + ANGK4
On to B3, for which the “Fold increase” value was determined as 5.37 fold, the dissociation constant (Kd) came out at 1.54 nM, the off-rate constant (koff) is 0.000764 s⁻¹ and the on-rate (kon) turned out to be 495000 M⁻¹ s⁻¹.

B4: Antuzumab 3 (antibody, V domains shown)
VH: B2 VH with V2I, S72T, T114L
VL: DIVMTQSPDSLAVSLGERATINCKASQSVDYDGDSYLNWYQQKPGQPPKLLIYTASNLESGVPDRFSGSGSGTDFTLTISSLQAEDVAVYYCQQSNEDPWTFGQGTKVEIK
notes: Humanized monoclonal antibody made in CHO cells; also called ANG27; ANGH1 + ANGK1
B4: the “Fold increase” value amounted to 1.85 fold; the affinity, expressed as Kd, was 4.47 nM; the koff turned out to be 0.000948 s⁻¹; the kon was determined as 212000 M⁻¹ s⁻¹.
